According to patent US12121566B2, “Methods for treating gout” (Horizon Therapeutics USA, Inc., priority 2019, dated 2024):
Like-named read-outs stand apart in the source and are kept apart here.

Experiments:
[1] = system: patients with chronic gout refractory to conventional therapy; conditions: cited from earlier work
[2] = Stability of pegloticase diluted in infusion bags; assay type: physicochemical; conditions: at 2° C. to 8° C. and at room temperature (20° C. to 25° C.)
Experimental: Pegloticase-diluted in infusion bags is stable for 4 hours at 2° C. to 8° C. (36° F. to 46° F.) and at room temperature (20° C. to 25° C., 68° F. to 77° F.); however, it is recommended that the diluted solution be stored under refrigeration, not frozen, protected from light, and used within 4 hours of dilution. Before administration, the diluted solution of pegloticase should be allowed to reach room temperature. Pegloticase in a vial or in an IV infusion fluid should never be subjected to artificial heating.
KXX diluted in infusion bags is stable for 4 hours at 2° to 8° C. (36° to 46° F.) and at room temperature (20° to 25° C., 68° to 77° F.). However, it is recommended that diluted solutions be stored under refrigeration, not frozen, protected from light, and used within 4 hours of dilution. Before administration, allow the diluted solution of KXX to reach room temperature. KXX in a vial or in an intravenous infusion fluid should never be subjected to artificial heating (e.g., hot water, microwave).

[3] = system: anti-pegloticase antibodies, anti-PEG antibodies; assay: Immunogenicity in clinical trials: antibody incidence and its relation to response and infusion reactions; assay type: in vivo, human
Experimental: A relationship between the loss of urate-lowering efficacy, incidence of IRs, and high-titer antibody formation was identified in a post-hoc analysis of the pooled data from the Phase 3 studies. […] In one study, 69 (41%) of 169 patients receiving pegloticase developed high titer anti-pegloticase antibodies and subsequently lost response to the drug. In a second study, only 1 of 52 participants with high antibody titers maintained a response to pegloticase (serum urate <6 mg/dL). In addition, 60% participants with high titers developed IR. Anti-pegloticase antibodies were largely directed to the polyethylene glycol (PEG) portion of the molecule and altered the pharmacokinetic clearance of pegloticase, resulting in inhibition of SUA lowering activity. […] In addition, 31 of 52 (60%) patients with titers exceeding 1:2430 developed IRs. […] By preventing the formation of anti-pegloticase antibodies, a tolerizing dose regimen should prevent loss of response to the drug and decrease the incidence of IRs associated with it.
Anti-pegloticase antibodies developed in 92% of patients treated with KXX every 2 weeks, and 28% for placebo. Anti-PEG antibodies were also detected in 42% of patients treated with KXX. High anti-pegloticase antibody titer was associated with a failure to maintain pegloticase-induced normalization of uric acid. The impact of anti-PEG antibodies on patients' responses to other PEG-containing therapeutics is unknown.
There was a higher incidence of infusion reactions in patients with high anti-pegloticase antibody titer: 53% (16 of 30) in the KXX every 2 weeks group compared to 6% in patients who had undetectable or low antibody titers.

dogs = assay: Animal toxicology in dogs (IV); assay type: in vivo, dog; conditions: for vacuoles in the spleen, adrenal glands, and heart after recovery: 1-year recovery period; for vacuoles in the liver, duodenum, and jejunum after recovery: 3-month recovery period
Experimental: Organs with cytoplasmic vacuoles included the spleen, adrenal gland, liver, heart, duodenum, and jejunum. Vacuoles in the spleen, adrenal glands, and heart persisted after a 1-year recovery period at pegloticase dose (≥1.5 mg/kg in dogs) approximately 5 times the MRHD, but were absent at a dose similar to the MRHD. Vacuoles in the liver, duodenum, and jejunum persisted after a 3-month recovery period at a pegloticase dose (10 mg/kg in dogs) approximately 30 times the MRHD, but were absent at doses less than or equal to 1.5 mg/kg approximately 5 times and similar to the MRHD. The edema and histiocyte infiltration in the aortic outflow tract was absent after recovery periods of 6 and 12 months, respectively.
Vacuoles in the spleen, liver, duodenum, and jejunum were within macrophages and most likely represented phagocytic removal of pegloticase from the circulation. […] In the aortic outflow tract of the heart, vacuoles were in the cytoplasm of endothelial cells in the intimal lining of the aorta. In the adrenal gland, vacuoles were located within cortical cells in the Zona reticularis and Zona fasciculata. The clinical significance of these findings and the functional consequences are unknown.

[4] = system: patients with refractory chronic gout; conditions: Phase 2 program; cited from earlier work
[5] = Pharmacokinetics after single intravenous infusions, serum uricase enzyme activity; assay type: in vivo, human; conditions: single intravenous infusions of 0.5 mg to 12 mg, 23 patients
Experimental: Pegloticase levels were determined in serum based on measurements of uricase enzyme activity.

[6] = system: patients with symptomatic gout; conditions: after doses of 4 to 12 mg, within 24 to 72 hours, from 11.1±0.6 mg/dL; cited from earlier work
[7] = system: patients with symptomatic gout; assay: Single-dose, dose-ranging trial: plasma uric acid and plasma uricase activity; assay type: in vivo, human
Description: In some embodiments, patients or subjects of the present disclosure may have blood samples taken for PK analysis during treatment with KXX, either alone, or co-administered with an immunosuppressive agent, such as AZA. Although limited PK results have been reported in subjects receiving pegloticase, and no PK studies have been performed in subjects weighing ≥120 kg, the present disclosure provides PK analysis in patients receiving KXX treatment, either alone or co-administered with an immunosuppressive agent or therapy. Sundy et al. (JAMA 306(7):711-20, 2011) reported results from 24 subjects with refractory gout who received single doses from 0.5 to 12 mg of pegloticase. PK parameters included plasma uricase activity (pUox) and the plasma urate concentration (pUAc). […] It remains uncertain whether body mass affects drug distribution. Since pegloticase is administered as a single dose regardless of body mass, this is important to assess.
The duration of suppression of plasma uric acid appeared to be positively associated with pegloticase dose.

rats = assay: Reproductive toxicity and fertility in rats; assay type: in vivo, rat
Description: The genotoxic potential of pegloticase has not been evaluated.

[8] = system: patients with chronic gout refractory to conventional therapy; conditions: bi-weekly or every 4 weeks for up to 30 months, 149 patients; cited from earlier work

## pegloticase
[1]; pooled Phase 3, 8 mg biweekly dosing
  incidence of infusion-related reactions: 26%
[1]; pooled Phase 3, 8 mg every-4-week dosing regimen
  incidence of infusion-related reactions: 40%
[1]; pooled Phase 3, 20/21
  patients with IRs in whom loss of response (return to SUA >6 mg/dL) preceded the first IR: 95%
[2]
  stability diluted in infusion bags: 4 h
[3]; KXX every 2 weeks
  patients who developed anti-pegloticase antibodies: 92%
[3]; KXX every 2 weeks group, 16 of 30
  incidence of infusion reactions in patients with high anti-pegloticase antibody titer: 53%
[3]; human, in vivo
  incidence of infusion reactions in patients with undetectable or low antibody titers: 6%
[3]; patients treated with KXX
  patients with anti-PEG antibodies detected: 42%
dogs; dose similar to the MRHD
  vacuoles in the spleen, adrenal glands, and heart after recovery: absent
dogs; ≥1.5 mg/kg, approximately 5 times the MRHD
  vacuoles in the spleen, adrenal glands, and heart after recovery: persisted
dogs; 10 mg/kg, approximately 30 times the MRHD
  vacuoles in the liver, duodenum, and jejunum after recovery: persisted
dogs; doses less than or equal to 1.5 mg/kg
  vacuoles in the liver, duodenum, and jejunum after recovery: absent
dogs; IV doses of ≥0.4 mg/kg, similar to and higher than the MRHD
  organ findings: caused cytoplasmic vacuoles in multiple organs, and edema and histiocyte infiltration in the aortic outflow tract
dogs; recovery periods of 6 and 12 months, respectively
  edema and histiocyte infiltration in the aortic outflow tract after recovery: absent
[4]
  dose-response plateau dose: 12 mg
  minimally effective dose: 4 mg
  safe and optimally effective dose: 8 mg
[5]
  maximum serum concentrations of pegloticase versus dose: increased in proportion to the dose administered
[6]
  plasma urate concentration (pUAc), mean±SD: 1.0±0.5 mg/dL
[7]; 0.5, 1, 2, 4, 8 or 12 mg, 24 patients
  plasma uric acid versus dose: decreased with increasing pegloticase dose or concentrations
[7]; single doses of 8 mg and 12 mg, 1-hour intravenous infusion
  duration of sustained decrease in plasma uric acid below 6 mg/dL: more than 300 hours
rats; approximately 10 times the MRHD, maternal doses up to 10 mg/kg twice weekly
  mean fetal body weights: No effects
rats; approximately 50 times the MRHD, maternal doses up to 40 mg/kg every other day
  mean fetal and pup body weights: Statistically significant decreases
rats; approximately 50 times the MRHD, maternal doses up to 40 mg/kg twice weekly
  teratogenicity: not teratogenic
rats; doses up to 40 mg/kg every other day (approximately 50 times the MRHD)
  impairment on fertility: no evidence of impairment
[8]
  long-term safety: No new safety signals were observed
